Measurements as given in patent publication US20240252592A1 (TIANJIN INSTITUTE OF PHARMACEUTICAL RESEARCH, published 2024).
Residue numbers refer to the chain shown, from its start. Numbered stars: 1 amine (or outer) side, 2 acyl side, 3 side chain; on linkers, the order of the positions; unused ones are H or OH. Square brackets hold non-standard residues; d marks the D form. Side chains are listed from the residue outwards. Ends that are not written are not given here. * marks the point of attachment. C18 diacid = O=C(O)CCCCCCCCCCCCCCCCC(=O)*; γGlu = O=C(O)[C@H](CCC(=O)[*:2])N[*:1]; AEEA = NCCOCCOCC(=O)O; Aib = CC(C)(N)C(=O)O

B1: Compound 23 (peptide)
peptide: H[Aib]QGTFTSDK([AEEA-AEEA-γGlu-C18 diacid])SKYLDEKRAKEFIEWLEAGGPSSG-NH2
modifications: N-terminus assumed
SMILES: CC[C@H](C)[C@H](NC(=O)[C@H](Cc1ccccc1)NC(=O)[C@H](CCC(=O)O)NC(=O)[C@H](CCCCN)NC(=O)[C@H](C)NC(=O)[C@H](CCCNC(=N)N)NC(=O)[C@H](CCCCN)NC(=O)[C@H](CCC(=O)O)NC(=O)[C@H](CC(=O)O)NC(=O)[C@H](CC(C)C)NC(=O)[C@H](Cc1ccc(O)cc1)NC(=O)[C@H](CCCCN)NC(=O)[C@H](CO)NC(=O)[C@H](CCCCNC(=O)COCCOCCNC(=O)COCCOCCNC(=O)CC[C@H](NC(=O)CCCCCCCCCCCCCCCCC(=O)O)C(=O)O)NC(=O)[C@H](CC(=O)O)NC(=O)[C@H](CO)NC(=O)[C@@H](NC(=O)[C@H](Cc1ccccc1)NC(=O)[C@@H](NC(=O)CNC(=O)[C@H](CCC(N)=O)NC(=O)C(C)(C)NC(=O)[C@@H](N)Cc1c[nH]cn1)[C@@H](C)O)[C@@H](C)O)C(=O)N[C@@H](CCC(=O)O)C(=O)N[C@@H](Cc1c[nH]c2ccccc12)C(=O)N[C@@H](CC(C)C)C(=O)N[C@@H](CCC(=O)O)C(=O)N[C@@H](C)C(=O)NCC(=O)NCC(=O)N1CCC[C@H]1C(=O)N[C@@H](CO)C(=O)N[C@@H](CO)C(=O)NCC(N)=O
B2: Compound 25 (peptide)
peptide: HXQGTFTSDKSKYLEERAAKEFVEWLLEAGGPSSG
HELM: PEPTIDE1{H.[Aib].Q.G.T.F.T.S.D.K.S.K.Y.L.E.E.R.A.A.K.E.F.V.E.W.L.L.E.A.G.G.P.S.S.G.[am]}|PEPTIDE2{[CCCCCCCCCCCCCCCC(=O)[*:2]].[gGlu].[gGlu]}$PEPTIDE1,PEPTIDE2,10:R3-3:R2$$$V2.0; N-terminus assumed
SMILES: CCCCCCCCCCCCCCCC(=O)N[C@@H](CCC(=O)N[C@@H](CCC(=O)NCCCC[C@H](NC(=O)[C@H](CC(=O)O)NC(=O)[C@H](CO)NC(=O)[C@@H](NC(=O)[C@H](Cc1ccccc1)NC(=O)[C@@H](NC(=O)CNC(=O)[C@H](CCC(N)=O)NC(=O)C(C)(C)NC(=O)[C@@H](N)Cc1c[nH]cn1)[C@@H](C)O)[C@@H](C)O)C(=O)N[C@@H](CO)C(=O)N[C@@H](CCCCN)C(=O)N[C@@H](Cc1ccc(O)cc1)C(=O)N[C@@H](CC(C)C)C(=O)N[C@@H](CCC(=O)O)C(=O)N[C@@H](CCC(=O)O)C(=O)N[C@@H](CCCNC(=N)N)C(=O)N[C@@H](C)C(=O)N[C@@H](C)C(=O)N[C@@H](CCCCN)C(=O)N[C@@H](CCC(=O)O)C(=O)N[C@@H](Cc1ccccc1)C(=O)N[C@H](C(=O)N[C@@H](CCC(=O)O)C(=O)N[C@@H](Cc1c[nH]c2ccccc12)C(=O)N[C@@H](CC(C)C)C(=O)N[C@@H](CC(C)C)C(=O)N[C@@H](CCC(=O)O)C(=O)N[C@@H](C)C(=O)NCC(=O)NCC(=O)N1CCC[C@H]1C(=O)N[C@@H](CO)C(=O)N[C@@H](CO)C(=O)NCC(N)=O)C(C)C)C(=O)O)C(=O)O
B3: Compound 26 (peptide)
peptide: B2 peptide with K10Y, R17K, A18R
HELM: PEPTIDE1{H.[Aib].Q.G.T.F.T.S.D.Y.S.K.Y.L.E.E.K.R.A.K.E.F.V.E.W.L.L.E.A.G.G.P.S.S.G.[am]}|PEPTIDE2{[CCCCCCCCCCCCCCCC(=O)[*:2]].[gGlu].[gGlu]}$PEPTIDE1,PEPTIDE2,20:R3-3:R2$$$V2.0; N-terminus assumed
SMILES: CCCCCCCCCCCCCCCC(=O)N[C@@H](CCC(=O)N[C@@H](CCC(=O)NCCCC[C@H](NC(=O)[C@H](C)NC(=O)[C@H](CCCNC(=N)N)NC(=O)[C@H](CCCCN)NC(=O)[C@H](CCC(=O)O)NC(=O)[C@H](CCC(=O)O)NC(=O)[C@H](CC(C)C)NC(=O)[C@H](Cc1ccc(O)cc1)NC(=O)[C@H](CCCCN)NC(=O)[C@H](CO)NC(=O)[C@H](Cc1ccc(O)cc1)NC(=O)[C@H](CC(=O)O)NC(=O)[C@H](CO)NC(=O)[C@@H](NC(=O)[C@H](Cc1ccccc1)NC(=O)[C@@H](NC(=O)CNC(=O)[C@H](CCC(N)=O)NC(=O)C(C)(C)NC(=O)[C@@H](N)Cc1c[nH]cn1)[C@@H](C)O)[C@@H](C)O)C(=O)N[C@@H](CCC(=O)O)C(=O)N[C@@H](Cc1ccccc1)C(=O)N[C@H](C(=O)N[C@@H](CCC(=O)O)C(=O)N[C@@H](Cc1c[nH]c2ccccc12)C(=O)N[C@@H](CC(C)C)C(=O)N[C@@H](CC(C)C)C(=O)N[C@@H](CCC(=O)O)C(=O)N[C@@H](C)C(=O)NCC(=O)NCC(=O)N1CCC[C@H]1C(=O)N[C@@H](CO)C(=O)N[C@@H](CO)C(=O)NCC(N)=O)C(C)C)C(=O)O)C(=O)O
B4: Compound 36 (peptide)
peptide: HXQGTFTSDKSKYLXERAAKEFIXWLEAGGPSSG
modifications: not fully specified; Lys 10 side chain -Ado-Ado-γE-OC17H32COOH; C-terminal amide
B5: Compound 1 (peptide)
peptide: B4 peptide
HELM: PEPTIDE1{H.[Aib].Q.G.T.F.T.S.D.K.S.K.Y.L.E.E.R.A.A.K.E.F.I.A.W.L.E.A.G.G.P.S.S.G.[am]}|PEPTIDE2{[CCCCCCCCCCCCCCCC(=O)[*:2]].[gGlu].[gGlu]}$PEPTIDE1,PEPTIDE2,10:R3-3:R2$$$V2.0; N-terminus assumed
SMILES: CCCCCCCCCCCCCCCC(=O)N[C@@H](CCC(=O)N[C@@H](CCC(=O)NCCCC[C@H](NC(=O)[C@H](CC(=O)O)NC(=O)[C@H](CO)NC(=O)[C@@H](NC(=O)[C@H](Cc1ccccc1)NC(=O)[C@@H](NC(=O)CNC(=O)[C@H](CCC(N)=O)NC(=O)C(C)(C)NC(=O)[C@@H](N)Cc1c[nH]cn1)[C@@H](C)O)[C@@H](C)O)C(=O)N[C@@H](CO)C(=O)N[C@@H](CCCCN)C(=O)N[C@@H](Cc1ccc(O)cc1)C(=O)N[C@@H](CC(C)C)C(=O)N[C@@H](CCC(=O)O)C(=O)N[C@@H](CCC(=O)O)C(=O)N[C@@H](CCCNC(=N)N)C(=O)N[C@@H](C)C(=O)N[C@@H](C)C(=O)N[C@@H](CCCCN)C(=O)N[C@@H](CCC(=O)O)C(=O)N[C@@H](Cc1ccccc1)C(=O)N[C@H](C(=O)N[C@@H](C)C(=O)N[C@@H](Cc1c[nH]c2ccccc12)C(=O)N[C@@H](CC(C)C)C(=O)N[C@@H](CCC(=O)O)C(=O)N[C@@H](C)C(=O)NCC(=O)NCC(=O)N1CCC[C@H]1C(=O)N[C@@H](CO)C(=O)N[C@@H](CO)C(=O)NCC(N)=O)[C@@H](C)CC)C(=O)O)C(=O)O

These binders were tested against human GLP-1 receptor (human, UniProt P43220 24-463) (assay: cell-based or functional assay).

In order of falling “EC50 of GLP-1 receptor mediated cAMP production” value:
1. H[Aib]QGTFTSDYSKYLEERAAK([AEEA-AEEA-γGlu-C18 diacid])EFVEWLEGGPSSG-NH2 (not fully specified; printed as HAibQGTFTSDYSKYLEERAAK**EFVEWLEGGPSSG-Amid) [Compound 32]  1.01 nM
2. HSQGTFTSDYSKYLDERAAK([AEEA-AEEA-γGlu-C18 diacid])EFIAWLEGGPSSG-NH2 (not fully specified; printed as HSQGTFTSDYSKYLDERAAK**EFIAWLEGGPSSG-Amid) [Compound 38]  0.716 nM
3. H[Aib]QGTFTSDYSKYLEEKRAK([AEEA-AEEA-γGlu-C18 diacid])EFVAWLEAGGPSSG-NH2 (not fully specified; printed as HAibQGTFTSDYSKYLEEKRAK**EFVAWLEAGGPSSG-Amid) [Compound 53]  0.532 nM
4. H[Aib]QGTFTSDYSKYLDERKAK([AEEA-AEEA-γGlu-C18 diacid])EFVEWLEAGGPSSG-NH2 (not fully specified; printed as HAibQGTFTSDYSKYLDERKAK**EFVEWLEAGGPSSG-Amid) [Compound 42]  0.52 nM
5. H[Aib]QGTFTSDYSKYLEERKAK([AEEA-AEEA-γGlu-C18 diacid])EFIAWLEAGGPSSG-NH2 (not fully specified; printed as HAibQGTFTSDYSKYLEERKAK**EFIAWLEAGGPSSG-Amid) [Compound 44]  0.371 nM
6. H[Aib]QGTFTSDYSKYLEEKRAK([AEEA-AEEA-γGlu-C18 diacid])EFVEWLEAGGPSSG-NH2 (not fully specified; printed as HAibQGTFTSDYSKYLEEKRAK**EFVEWLEAGGPSSG-Amid) [Compound 54]  0.219 nM
7. B2  0.211 nM
8. B1  0.194 nM
9. B3  0.193 nM
10. H[Aib]QGTFTSDYSKYLDEKRAK([AEEA-AEEA-γGlu-C18 diacid])EFIAWLEAGGPSSG-NH2 (not fully specified; printed as HAibQGTFTSDYSKYLDEKRAK**EFIAWLEAGGPSSG-Amid) [Compound 50]  0.119 nM
11. B4  0.072 nM
12. B5  0.0654 nM
13. H[Aib]QGTFTSDK([AEEA-AEEA-γGlu-C18 diacid])SKYLEERAAKEFVAWLEAGGPSSG-NH2 (not fully specified; printed as HAibQGTFTSDK**SKYLEERAAKEFVAWLEAGGPSSG-Amid) [Compound 22]  0.027 nM
14. H[Aib]QGTFTSDK([AEEA-AEEA-γGlu-C18 diacid])SKYLEERAAKEFIAWLEAGGPSSG-NH2 (not fully specified; printed as HAibQGTFTSDK**SKYLEERAAKEFIAWLEAGGPSSG-Amid) [Compound 27]  0.011 nM

These binders were tested against GC receptor (assay: cell-based or functional assay).

In order of falling “EC50 of GC receptor mediated cAMP production” value:
1. B1  0.329 nM
2. H[Aib]QGTFTSDYSKYLEEKRAK([AEEA-AEEA-γGlu-C18 diacid])EFVAWLEAGGPSSG-NH2 (not fully specified; printed as HAibQGTFTSDYSKYLEEKRAK**EFVAWLEAGGPSSG-Amid) [Compound 53]  0.316 nM
3. B2  0.278 nM
4. H[Aib]QGTFTSDYSKYLEEKRAK([AEEA-AEEA-γGlu-C18 diacid])EFVEWLEAGGPSSG-NH2 (not fully specified; printed as HAibQGTFTSDYSKYLEEKRAK**EFVEWLEAGGPSSG-Amid) [Compound 54]  0.274 nM
5. H[Aib]QGTFTSDYSKYLEERKAK([AEEA-AEEA-γGlu-C18 diacid])EFIAWLEAGGPSSG-NH2 (not fully specified; printed as HAibQGTFTSDYSKYLEERKAK**EFIAWLEAGGPSSG-Amid) [Compound 44]  0.219 nM
6. B3  0.197 nM
7. HSQGTFTSDYSKYLDERAAK([AEEA-AEEA-γGlu-C18 diacid])EFIAWLEGGPSSG-NH2 (not fully specified; printed as HSQGTFTSDYSKYLDERAAK**EFIAWLEGGPSSG-Amid) [Compound 38]  0.102 nM
8. H[Aib]QGTFTSDYSKYLEERAAK([AEEA-AEEA-γGlu-C18 diacid])EFVEWLEGGPSSG-NH2 (not fully specified; printed as HAibQGTFTSDYSKYLEERAAK**EFVEWLEGGPSSG-Amid) [Compound 32]  0.077 nM
9. B4  0.069 nM
10. B5  0.0574 nM
11. H[Aib]QGTFTSDYSKYLDEKRAK([AEEA-AEEA-γGlu-C18 diacid])EFIAWLEAGGPSSG-NH2 (not fully specified; printed as HAibQGTFTSDYSKYLDEKRAK**EFIAWLEAGGPSSG-Amid) [Compound 50]  0.048 nM
12. H[Aib]QGTFTSDYSKYLDERKAK([AEEA-AEEA-γGlu-C18 diacid])EFVEWLEAGGPSSG-NH2 (not fully specified; printed as HAibQGTFTSDYSKYLDERKAK**EFVEWLEAGGPSSG-Amid) [Compound 42]  0.024 nM
13. H[Aib]QGTFTSDK([AEEA-AEEA-γGlu-C18 diacid])SKYLEERAAKEFVAWLEAGGPSSG-NH2 (not fully specified; printed as HAibQGTFTSDK**SKYLEERAAKEFVAWLEAGGPSSG-Amid) [Compound 22]  0.018 nM
14. H[Aib]QGTFTSDK([AEEA-AEEA-γGlu-C18 diacid])SKYLEERAAKEFIAWLEAGGPSSG-NH2 (not fully specified; printed as HAibQGTFTSDK**SKYLEERAAKEFIAWLEAGGPSSG-Amid) [Compound 27]  0.014 nM
